Measured values from the supplement of paper PMC10065799, “High-throughput profiling of sequence recognition by tyrosine kinases and SH2 domains using bacterial peptide display” (eLife, 2023).

Key:
AncSZ = test: phosphorylation enrichment, bacterial display (enrichment ratio); higher = better substrate or ligand; peptides without Tyr show the background
EPHB1 = EPHB1 (UniProt P54762); test: as above
EPHB2 = EPHB2 (UniProt P29323); test: as above
FGFR1 = FGFR1 (UniProt P11362); test: as above
FGFR3 = FGFR3 (UniProt P22607); test: as above
Fer (mouse) = test: as above
Fes = Fes (UniProt P07332); test: as above
Fyn = Fyn (UniProt P06241); test: as above
Hck = Hck (UniProt P08631); test: as above
Jak2 = Jak2 (UniProt O60674); test: as above
MERTK = MERTK (UniProt Q12866); test: as above
c-Abl (mouse) = test: as above
c-Src = test: as above
Grb2 SH2 = Grb2 SH2 (UniProt P62993); test: SH2 binding enrichment of the phosphorylated peptide, bacterial display (enrichment ratio); higher = better substrate or ligand; peptides without Tyr show the background
SHP2-C SH2 = test: as above
c-Src SH2 = test: as above
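Wherever SH2 binding enrichment of the phosphorylated peptide, bacterial display is given: peptide library displayed on the E. coli surface as eCPX fusions, selected cells deep-sequenced, score is each peptide's frequency after selection divided by its frequency in the input.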
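Wherever phosphorylation enrichment, bacterial display is given: 11-residue human phosphosite peptides and single-mutation variants displayed on the E. coli surface, counted by deep sequencing, each peptide's frequency after selection divided by its frequency in the unselected input library; frequency after pTyr selection over input frequency; kinase dosed for 20-30% of maximal phosphorylation in three min.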

Sequence of EPHB1 (P54762 whole entry, looked up): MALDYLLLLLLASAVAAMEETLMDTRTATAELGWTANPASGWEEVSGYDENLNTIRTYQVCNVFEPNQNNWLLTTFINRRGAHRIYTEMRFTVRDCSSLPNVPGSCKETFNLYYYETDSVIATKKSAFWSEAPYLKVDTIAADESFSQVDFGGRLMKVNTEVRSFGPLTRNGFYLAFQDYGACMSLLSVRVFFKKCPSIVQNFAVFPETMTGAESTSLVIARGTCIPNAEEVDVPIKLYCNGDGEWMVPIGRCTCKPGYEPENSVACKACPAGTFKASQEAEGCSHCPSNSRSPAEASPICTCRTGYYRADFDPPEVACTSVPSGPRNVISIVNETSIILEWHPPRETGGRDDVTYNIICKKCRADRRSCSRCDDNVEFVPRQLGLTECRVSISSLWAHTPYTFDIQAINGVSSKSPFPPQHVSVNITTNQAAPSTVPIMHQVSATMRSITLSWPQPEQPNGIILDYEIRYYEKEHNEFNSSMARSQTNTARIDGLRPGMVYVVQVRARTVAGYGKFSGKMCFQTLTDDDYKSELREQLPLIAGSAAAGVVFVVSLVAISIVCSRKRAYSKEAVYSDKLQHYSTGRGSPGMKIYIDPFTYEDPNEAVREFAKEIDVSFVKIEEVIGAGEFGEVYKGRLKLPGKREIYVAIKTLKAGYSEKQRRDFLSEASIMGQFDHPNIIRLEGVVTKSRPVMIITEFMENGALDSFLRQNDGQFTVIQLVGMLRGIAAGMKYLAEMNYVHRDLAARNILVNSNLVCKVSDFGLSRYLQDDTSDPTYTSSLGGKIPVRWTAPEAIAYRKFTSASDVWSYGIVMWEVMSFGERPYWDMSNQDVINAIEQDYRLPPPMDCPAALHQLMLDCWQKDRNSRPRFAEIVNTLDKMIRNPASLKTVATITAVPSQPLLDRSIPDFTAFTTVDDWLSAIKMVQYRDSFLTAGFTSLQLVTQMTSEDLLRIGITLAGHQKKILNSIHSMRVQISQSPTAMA
Sequence of EPHB2 (P29323 whole entry, looked up): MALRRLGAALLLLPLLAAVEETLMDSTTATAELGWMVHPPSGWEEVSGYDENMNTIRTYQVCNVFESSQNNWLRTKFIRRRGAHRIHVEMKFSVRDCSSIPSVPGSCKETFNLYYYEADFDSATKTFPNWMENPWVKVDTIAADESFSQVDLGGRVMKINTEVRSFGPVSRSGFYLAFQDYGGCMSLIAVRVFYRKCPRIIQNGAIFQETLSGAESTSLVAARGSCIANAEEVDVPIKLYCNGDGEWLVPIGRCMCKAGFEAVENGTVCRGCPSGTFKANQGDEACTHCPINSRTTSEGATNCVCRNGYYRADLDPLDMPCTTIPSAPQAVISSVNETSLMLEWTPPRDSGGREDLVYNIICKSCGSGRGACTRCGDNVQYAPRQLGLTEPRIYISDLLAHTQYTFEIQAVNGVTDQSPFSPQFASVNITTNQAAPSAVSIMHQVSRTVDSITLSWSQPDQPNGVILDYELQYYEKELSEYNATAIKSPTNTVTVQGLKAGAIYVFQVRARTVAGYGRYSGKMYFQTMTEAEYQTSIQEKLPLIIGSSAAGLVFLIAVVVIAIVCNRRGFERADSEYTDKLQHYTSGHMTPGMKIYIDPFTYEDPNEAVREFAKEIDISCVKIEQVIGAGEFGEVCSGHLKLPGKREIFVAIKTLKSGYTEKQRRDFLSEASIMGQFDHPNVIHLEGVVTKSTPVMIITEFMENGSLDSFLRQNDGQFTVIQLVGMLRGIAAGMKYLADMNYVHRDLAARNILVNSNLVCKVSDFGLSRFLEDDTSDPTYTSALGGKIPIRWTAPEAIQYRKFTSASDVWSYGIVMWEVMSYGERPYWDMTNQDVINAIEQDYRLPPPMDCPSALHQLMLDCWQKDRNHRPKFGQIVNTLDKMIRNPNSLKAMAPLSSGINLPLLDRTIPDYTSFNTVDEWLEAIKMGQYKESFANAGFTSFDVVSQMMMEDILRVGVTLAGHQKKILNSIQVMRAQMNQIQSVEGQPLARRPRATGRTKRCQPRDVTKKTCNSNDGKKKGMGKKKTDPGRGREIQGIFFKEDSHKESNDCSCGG
Sequence of Hck (P08631 whole entry, looked up): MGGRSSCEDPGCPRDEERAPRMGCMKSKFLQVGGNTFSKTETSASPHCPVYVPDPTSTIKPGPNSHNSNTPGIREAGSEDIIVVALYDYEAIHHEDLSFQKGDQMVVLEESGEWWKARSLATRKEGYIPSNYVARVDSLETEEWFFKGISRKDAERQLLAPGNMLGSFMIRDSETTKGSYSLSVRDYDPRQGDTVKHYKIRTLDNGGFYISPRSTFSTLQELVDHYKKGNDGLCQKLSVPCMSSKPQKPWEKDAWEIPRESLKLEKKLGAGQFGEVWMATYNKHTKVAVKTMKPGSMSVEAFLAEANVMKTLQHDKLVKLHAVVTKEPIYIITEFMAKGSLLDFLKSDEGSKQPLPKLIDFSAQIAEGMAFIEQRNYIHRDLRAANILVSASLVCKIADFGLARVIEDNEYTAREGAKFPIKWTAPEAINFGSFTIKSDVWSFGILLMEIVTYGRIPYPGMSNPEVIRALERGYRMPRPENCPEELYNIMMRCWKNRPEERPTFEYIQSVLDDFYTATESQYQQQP
Sequence of Fes (P07332 whole entry, looked up): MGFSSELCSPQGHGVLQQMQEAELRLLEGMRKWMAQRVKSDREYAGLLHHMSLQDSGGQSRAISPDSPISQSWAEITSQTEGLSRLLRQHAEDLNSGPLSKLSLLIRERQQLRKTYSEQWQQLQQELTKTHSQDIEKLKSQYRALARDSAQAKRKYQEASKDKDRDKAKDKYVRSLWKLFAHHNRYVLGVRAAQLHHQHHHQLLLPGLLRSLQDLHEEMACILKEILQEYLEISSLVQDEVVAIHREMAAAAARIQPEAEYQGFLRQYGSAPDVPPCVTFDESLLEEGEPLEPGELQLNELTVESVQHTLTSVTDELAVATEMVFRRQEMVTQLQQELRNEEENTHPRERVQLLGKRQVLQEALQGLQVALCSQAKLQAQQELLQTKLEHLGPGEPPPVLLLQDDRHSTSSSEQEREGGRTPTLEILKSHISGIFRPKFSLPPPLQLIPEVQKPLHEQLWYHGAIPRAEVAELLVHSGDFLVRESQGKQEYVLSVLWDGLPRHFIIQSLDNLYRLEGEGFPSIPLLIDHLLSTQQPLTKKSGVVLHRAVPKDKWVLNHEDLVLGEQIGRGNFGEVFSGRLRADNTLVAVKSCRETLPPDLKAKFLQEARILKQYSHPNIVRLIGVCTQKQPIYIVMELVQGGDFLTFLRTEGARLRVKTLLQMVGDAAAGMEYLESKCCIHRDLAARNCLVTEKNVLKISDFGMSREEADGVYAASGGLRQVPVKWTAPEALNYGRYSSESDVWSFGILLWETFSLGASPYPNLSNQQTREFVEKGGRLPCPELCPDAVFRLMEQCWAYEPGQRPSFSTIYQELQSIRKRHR
Sequence of FGFR3 (P22607 whole entry, looked up): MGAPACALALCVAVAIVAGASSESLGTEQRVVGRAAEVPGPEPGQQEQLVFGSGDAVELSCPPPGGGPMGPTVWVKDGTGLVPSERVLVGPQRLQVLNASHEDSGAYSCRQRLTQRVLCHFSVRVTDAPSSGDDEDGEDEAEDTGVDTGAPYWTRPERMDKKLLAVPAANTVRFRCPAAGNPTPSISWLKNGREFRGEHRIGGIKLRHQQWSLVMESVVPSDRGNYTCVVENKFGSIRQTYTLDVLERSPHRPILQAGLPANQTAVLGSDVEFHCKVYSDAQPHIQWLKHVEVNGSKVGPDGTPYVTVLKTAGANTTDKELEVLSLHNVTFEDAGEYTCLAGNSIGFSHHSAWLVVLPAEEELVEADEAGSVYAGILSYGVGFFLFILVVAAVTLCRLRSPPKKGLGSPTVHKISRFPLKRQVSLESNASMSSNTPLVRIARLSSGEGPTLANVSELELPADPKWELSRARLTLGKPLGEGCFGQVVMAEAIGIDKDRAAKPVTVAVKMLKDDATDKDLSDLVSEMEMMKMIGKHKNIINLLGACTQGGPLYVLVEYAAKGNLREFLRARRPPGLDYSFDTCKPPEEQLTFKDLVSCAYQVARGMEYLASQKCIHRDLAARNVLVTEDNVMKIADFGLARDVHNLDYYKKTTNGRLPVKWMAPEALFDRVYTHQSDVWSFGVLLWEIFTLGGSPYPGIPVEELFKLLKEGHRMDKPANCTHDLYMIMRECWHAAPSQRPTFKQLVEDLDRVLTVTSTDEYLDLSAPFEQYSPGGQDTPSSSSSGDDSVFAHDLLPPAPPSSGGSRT
Sequence of FGFR1 (P11362 whole entry, looked up): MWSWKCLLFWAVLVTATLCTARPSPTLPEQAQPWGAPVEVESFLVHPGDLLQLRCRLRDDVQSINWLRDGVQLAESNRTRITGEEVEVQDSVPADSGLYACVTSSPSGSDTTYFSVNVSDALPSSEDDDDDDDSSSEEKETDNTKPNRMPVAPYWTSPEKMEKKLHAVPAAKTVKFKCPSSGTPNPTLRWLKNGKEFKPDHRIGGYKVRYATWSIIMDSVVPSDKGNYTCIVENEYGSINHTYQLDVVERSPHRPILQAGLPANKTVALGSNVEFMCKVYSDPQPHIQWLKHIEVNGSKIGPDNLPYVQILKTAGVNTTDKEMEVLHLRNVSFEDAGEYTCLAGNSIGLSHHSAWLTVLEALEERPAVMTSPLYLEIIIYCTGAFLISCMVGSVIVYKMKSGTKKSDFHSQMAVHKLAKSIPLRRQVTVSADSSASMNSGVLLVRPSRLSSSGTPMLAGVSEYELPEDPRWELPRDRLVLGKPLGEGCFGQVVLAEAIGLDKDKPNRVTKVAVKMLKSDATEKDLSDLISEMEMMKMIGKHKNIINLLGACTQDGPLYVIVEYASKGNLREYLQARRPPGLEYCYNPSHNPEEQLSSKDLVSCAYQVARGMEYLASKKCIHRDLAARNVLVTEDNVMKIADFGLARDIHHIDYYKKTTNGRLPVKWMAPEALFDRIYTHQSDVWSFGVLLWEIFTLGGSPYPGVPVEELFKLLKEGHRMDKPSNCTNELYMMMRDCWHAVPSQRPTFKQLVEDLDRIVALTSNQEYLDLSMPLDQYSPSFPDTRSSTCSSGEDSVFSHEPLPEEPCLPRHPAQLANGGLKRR

SH2 binding enrichment (Grb2 SH2)	SH2 binding enrichment (SHP2-C SH2)	SH2 binding enrichment (c-Src SH2)	Sequence	phosphorylation enrichment (AncSZ)	phosphorylation enrichment (EPHB1)	phosphorylation enrichment (EPHB2)	phosphorylation enrichment (FGFR1)	phosphorylation enrichment (FGFR3)	phosphorylation enrichment (Fer (mouse))	phosphorylation enrichment (Fes)	phosphorylation enrichment (Fyn)	phosphorylation enrichment (Hck)	phosphorylation enrichment (Jak2)	phosphorylation enrichment (MERTK)	phosphorylation enrichment (c-Abl (mouse))	phosphorylation enrichment (c-Src)
0.797	0.577	0.478	TTEHIYGDNFF [UBA7_Y524]	0.776	0.458	0.514	0.417	0.552	2.38	0.882	5.55	2.41	0.671	0.597	0.754	4.18
0.707	0.61	0.651	RRIHSYRCHLW [VHL_Y112_G114C]	0.967	0.564	0.477	0.642	0.641	0.68	1.25	0.767	0.629	0.762	0.786	0.822	0.748
1.03	6.75	1.96	NRNVRYLTLDI [AKR1C2_Y305]	0.744	0.392	0.506	0.507	0.499	0.395	0.921	0.381	0.523	0.835	0.497	0.635	0.441
0.686	0.783	0.453	EKKKFYDAKIE [CASP5_Y104_T106A_YF]	0.751	0.4	0.409	0.431	0.534	0.435	0.803	0.369	0.468	1.05	0.349	0.718	0.466
0.929	1.94	24.5	ETVHRYVELLD [AP1S3_Y87_I83T]	0.905	0.538	0.654	0.591	0.746	0.435	0.997	0.478	0.52	0.752	0.415	0.613	0.461
0.745	0.648	0.507	GEIQEYGAPSD [ABCC1_Y1508]	1.07	0.493	0.544	0.523	0.662	0.481	1.05	0.506	0.505	0.891	0.476	0.757	0.438
1.04	0.715	1.15	KNKELYSDLFD [PDE10A_Y300]	1.13	1.03	0.794	0.556	0.66	1.84	1.14	0.68	0.958	0.898	1.35	0.918	0.6
1	0.92	0.589	TLEKFYFAFPG [SLC1A1_Y51]	1.53	1.98	2.85	8.55	6.62	0.496	1.18	1.9	1.62	3.54	7.49	7.49	3.75
0.924	0.802	0.669	CTTIHYNFMWN [TP53_Y234_C238W_YF]	1.43	0.725	0.727	0.621	0.981	1.04	1.66	0.508	0.543	1.5	0.717	1.09	0.59
0.881	0.501	0.629	APSHAYHGGVL [ANO1_Y981]	0.52	0.371	0.336	0.626	0.427	0.502	0.494	0.382	0.5	0.496	0.381	0.505	0.475
0.858	0.616	0.408	KEAQVYQAFKL [SUCLG2_Y343]	1.1	1.07	0.566	0.516	0.603	9.27	1.05	11.3	9.46	0.801	2.84	15.3	7.32
1.11	1.31	1.09	VLICAYLLHRG [PTEN_Y138_M134L]	1.06	0.62	0.661	0.44	0.809	0.856	1.33	0.515	0.608	0.929	0.412	0.833	0.516
0.749	0.521	0.379	KSLFHYRQYSA [CPS1_Y1491]	0.778	0.527	0.602	0.531	0.646	0.408	0.808	0.54	0.512	0.686	0.469	0.567	0.493
0.802	0.516	0.582	ELQDDYEDTME [SLC4A1_Y8_M11T]	1.47	0.942	0.836	0.649	0.972	0.805	1.39	0.77	0.649	1.47	0.526	1	0.603
0.713	0.603	0.391	LSEEKYELKEG [TREM1_Y29_T25S]	1.54	0.712	0.628	0.592	0.835	0.627	1.4	0.574	0.513	1.18	0.449	0.875	0.489
1.5	0.948	0.589	QEKKGYFEDRC [GLUL_Y336_R341C]	1.06	0.522	0.631	0.804	0.716	0.519	1.29	0.609	0.655	1	0.799	0.843	0.613

SH2 binding enrichment (Grb2 SH2)	SH2 binding enrichment (SHP2-C SH2)	SH2 binding enrichment (c-Src SH2)	Sequence	phosphorylation enrichment (AncSZ)	phosphorylation enrichment (EPHB1)	phosphorylation enrichment (EPHB2)	phosphorylation enrichment (FGFR1)	phosphorylation enrichment (FGFR3)	phosphorylation enrichment (Fer (mouse))	phosphorylation enrichment (Fes)	phosphorylation enrichment (Fyn)	phosphorylation enrichment (Hck)	phosphorylation enrichment (Jak2)	phosphorylation enrichment (MERTK)	phosphorylation enrichment (c-Abl (mouse))	phosphorylation enrichment (c-Src)
0.829	2.8	0.844	DGTIVYTGLET [USH2A_Y4487]	0.821	0.525	0.528	0.755	0.636	0.468	1.01	0.706	0.773	0.901	0.465	0.764	1.05
0.826	0.794	0.523	TFEPNYGTVKQ [RAPGEF6_Y1447_YF]	1.01	0.582	1.53	0.471	0.63	0.881	0.607	1.36	0.822	0.488	0.442	0.522	1.22
1.12	0.697	0.719	PVQAAYQKVVD [HBB_Y131_A136D]	0.831	0.493	1.06	0.655	0.515	0.384	1.01	0.621	0.931	0.577	0.38	0.432	0.458
0.729	0.768	1.18	KSSDVYVSYDY [SORL1_Y136]	1.16	1.38	1.92	4.12	2.64	0.914	1.07	5.35	2.18	1.08	1.97	0.712	4.15
1.12	1.19	0.663	GLVFLYVEKNQ [PRELP_Y156_M157V]	1.22	0.6	0.622	0.44	0.902	0.575	1.29	0.505	0.532	1.15	0.337	0.759	0.479
0.759	0.6	0.537	TNITEYCRDLI [RECQL_Y492_K487T]	1.01	0.614	0.617	0.498	0.743	0.491	1.35	0.497	0.569	1.25	0.415	0.81	0.56
1.2	0.852	0.549	QSRSPYSSRHS [CDK13_Y415_R410Q]	0.85	0.471	0.443	0.558	0.541	0.543	0.808	0.715	0.593	0.823	0.452	0.597	0.705
1.12	1.11	0.829	VVQGIYGYHHY [UFSP2_Y285]	0.923	3.24	8.76	0.662	0.575	16.7	1.04	11.8	10.5	0.683	11.3	7.67	8.86
0.907	2.06	0.654	RESVSYLFSHV [PRPS1_Y311_G306R]	1	0.588	0.901	0.532	0.814	0.479	1.12	1.41	0.549	1.15	0.492	1.06	0.742
1.38	1.38	1.16	LIFVSYDDWDY [GRIN2A_Y281_S278F]	2.07	1.8	2.52	0.95	1.77	4.89	2.75	0.966	0.774	2.22	0.618	1.49	0.914
0.838	0.753	0.454	MSNSAYVKREV [SCN1A_Y1694_F1692S]	0.563	0.407	0.415	0.45	0.46	0.37	0.562	0.402	0.399	0.437	0.381	0.442	0.335
0.683	0.819	0.591	LSNPAYCLLLA [DDR1_Y513_R514C]	1.5	1.05	0.844	6.78	4.44	0.973	1.63	0.605	0.855	1.49	5.79	0.912	0.699
0.72	0.766	0.448	NLPGGYSGSVK [MCPH1_Y606]	0.595	0.407	0.455	0.374	0.425	0.375	0.652	0.484	0.447	0.618	0.371	0.747	0.46
0.646	0.573	0.49	GYITSYREEEQ	1.29	0.677	0.659	0.595	0.711	0.616	1.37	0.554	0.543	1.15	0.442	0.879	0.463
0.662	0.633	0.478	WRPFGYPHRRR [BCS1L_Y181_R183H]	0.622	0.534	0.461	0.507	0.554	0.512	0.511	0.488	0.509	0.509	0.505	0.5	0.473
0.951	0.785	0.506	SAEKAYHEQLS [TUBA1A_Y282]	0.558	0.462	0.424	0.604	0.572	0.425	0.844	0.428	0.443	0.619	0.418	0.511	0.369

Sequence	SH2 binding enrichment (Grb2 SH2)	SH2 binding enrichment (SHP2-C SH2)	SH2 binding enrichment (c-Src SH2)	phosphorylation enrichment (AncSZ)	phosphorylation enrichment (EPHB1)	phosphorylation enrichment (EPHB2)	phosphorylation enrichment (FGFR1)	phosphorylation enrichment (FGFR3)	phosphorylation enrichment (Fer (mouse))	phosphorylation enrichment (Fes)	phosphorylation enrichment (Fyn)	phosphorylation enrichment (Hck)	phosphorylation enrichment (Jak2)	phosphorylation enrichment (MERTK)	phosphorylation enrichment (c-Abl (mouse))	phosphorylation enrichment (c-Src)
TTKAKYKTPIF [PLD2_Y573_T577I_YF]	1.06	1.14	0.764	0.588	0.38	0.263	0.481	0.572	0.487	0.717	0.499	0.411	0.659	0.495	0.632	0.434
